Laboratory results as given in the supplement of paper PMC11246515.
± gives the standard deviation of the averaged measurements.

Assay: total protein half-life in vivo (active degradation + dilution); higher = more stable protein
[1] = wild type E. coli NCM3722, growth: C-lim chemostat, doubling time 6 h
[2] = wild type E. coli NCM3722, growth: C-lim chemostat, doubling time 12 h
[3] = E. coli NCM3722 delta-clpP delta-lon delta-hslV, growth: N-lim chemostat, doubling time 6 h
[4] = E. coli NCM3722 delta-clpP, growth: N-lim chemostat, doubling time 6 h
[5] = E. coli NCM3722 delta-smpB, growth: N-lim chemostat, doubling time 6 h
[6] = wild type E. coli NCM3722, growth: C-lim chemostat, doubling time 3 h
[7] = wild type E. coli NCM3722, growth: N-lim chemostat, doubling time 6 h
[8] = wild type E. coli NCM3722, growth: N-lim chemostat, doubling time 12 h
[9] = wild type E. coli NCM3722, growth: P-lim chemostat, doubling time 12 h
[10] = E. coli NCM3722 delta-hslV, growth: N-lim chemostat, doubling time 6 h
[11] = E. coli NCM3722 delta-lon, growth: N-lim chemostat, doubling time 6 h
[12] = wild type E. coli NCM3722, growth: P-lim chemostat, doubling time 6 h

Substance: MRKIKGLRWYMIALVTLGTVLGYLTRNTVAAAAPTLMEELNISTQQYSYIIAAYSAAYTVMQPVAGYVLDVLGTKIGYAMFAVLWAVFCGATALAGSWGGLAVARGAVGAAEAAMIPAGLKASSEWFPAKERSIAVGYFNVGSSIGAMIAPPLVVWAIVMHSWQMAFIISGALSFIWAMAWLIFYKHPRDQKHLTDEERDYIINGQEAQHQVSTAKKMSVGQILRNRQFWGIALPRFLAEPAWGTFNAWIPLFMFKVYGFNLKEIAMFAWMPMLFADLGCILGGYLPPLFQRWFGVNLIVSRKMVVTLGAVLMIGPGMIGLFTNPYVAIMLLCIGGFAHQALSGALITLSSDVFGRNEVATANGLTGMSAWLASTLFALVVGALADTIGFSPLFAVLAVFDLLGALVIWTVLQNKPAIEVAQETHNDPAPQH [P0AA78]
- total protein half-life in vivo [1]: 5.93 ± 0.18 h
- total protein half-life in vivo [2]: 9.36 ± 0.82 h

Substance: MAAVNLRHIEIFHAVMTAGSLTEAAHLLHTSQPTVSRELARFEKVIGLKLFERVRGRLHPTVQGLRLFEEVQRSWYGLDRIVSAAESLREFRQGELSIACLPVFSQSFLPQLLQPFLARYPDVSLNIVPQESPLLEEWLSAQRHDLGLTETLHTPAGTERTELLSLDEVCVLPPGHPLAVKKVLTPDDFQGENYISLSRTDSYRQLLDQLFTEHQVKRRMIVETHSAASVCAMVRAGVGISVVNPLTALDYAASGLVVRRFSIAVPFTVSLIRPLHRPSSALVQAFSGHLQAGLPKLVTSLDAILSSATTA
- total protein half-life in vivo [3]: 7.04 ± 0.23 h
- total protein half-life in vivo [4]: 4.89 h
- total protein half-life in vivo [5]: 5.18 ± 2.1 h
- total protein half-life in vivo [6]: 3.2 ± 0.26 h
- total protein half-life in vivo [1]: 6.28 h
- total protein half-life in vivo [2]: 11.805 ± 0.0096 h
- total protein half-life in vivo [7]: 5.91 ± 0.071 h
- total protein half-life in vivo [8]: > 16 h
- total protein half-life in vivo [9]: 13.1 ± 0.34 h

Substance: MQSERIYLVWAHPRHDSLTAHIADAIHQRAMERKIQVTELDLYRRNFNPVMTPEDEPDWKNMDKRYSPEVHQLYSELLEHDTLVVVFPLWWYSFPAMLKGYIDRVWNNGLAYGDGHKLPFNKVRWVALVGGDKESFVQMGWEKNISDYLKNMCSYLGIEDADVTFLCNTVVFDGEELHASYYQSLLSQVRDMVDAL
- total protein half-life in vivo [4]: 4.52 ± 0.47 h
- total protein half-life in vivo [10]: 4 h
- total protein half-life in vivo [11]: 4.84 ± 0.22 h
- total protein half-life in vivo [5]: 4.07 ± 0.28 h
- total protein half-life in vivo [6]: 2.98 ± 0.16 h
- total protein half-life in vivo [1]: 6.87 ± 1.5 h
- total protein half-life in vivo [2]: 9.75 ± 0.92 h
- total protein half-life in vivo [7]: 4.62 ± 0.12 h
- total protein half-life in vivo [8]: 7.48 ± 1 h
- total protein half-life in vivo [12]: 5.643 ± 0.052 h
- total protein half-life in vivo [9]: 11.5 ± 1.1 h

Substance: P0ABD3
- total protein half-life in vivo [4]: 5.98 ± 0.58 h
- total protein half-life in vivo [10]: 6.83 ± 1.2 h
- total protein half-life in vivo [11]: 6.67 ± 0.28 h
- total protein half-life in vivo [5]: 6.17 ± 0.69 h
- total protein half-life in vivo [1]: 6.73 ± 1.5 h
- total protein half-life in vivo [2]: 11.4 ± 1.6 h
- total protein half-life in vivo [7]: 5.57 ± 0.29 h
- total protein half-life in vivo [8]: 13.5 ± 2.1 h
- total protein half-life in vivo [12]: 5.92 ± 0.82 h
- total protein half-life in vivo [9]: 13.2 ± 0.8 h

Substance: MEITEPRRLYQQLAADLKERIEQGVYLVGDKLPAERFIADEKNVSRTVVREAIIMLEVEGYVEVRKGSGIHVVSNQPRHQQAADNNMEFANYGPFELLQARQLIESNIAEFAATQVTKQDIMKLMAIQEQARGEQCFRDSEWDLQFHIQVALATQNSALAAIVEKMWTQRSHNPYWKKLHEHIDSRTVDNWCDDHDQILKALIRKDPHAAKLAMWQHLENTKIMLFNETSDDFEFNADRYLFAENPVVHLDTATSGSK [P0ACL2]
- total protein half-life in vivo [3]: 5.59 ± 0.086 h
- total protein half-life in vivo [4]: 4.22 ± 0.52 h
- total protein half-life in vivo [10]: 1.94 ± 0.086 h
- total protein half-life in vivo [11]: 2.4 ± 0.26 h
- total protein half-life in vivo [5]: 2.12 ± 0.16 h
- total protein half-life in vivo [6]: 1.97 ± 0.099 h
- total protein half-life in vivo [1]: 3.7 ± 0.26 h
- total protein half-life in vivo [2]: 5.16 ± 0.083 h
- total protein half-life in vivo [7]: 1.97 ± 0.043 h
- total protein half-life in vivo [8]: 2.59 ± 0.37 h
- total protein half-life in vivo [12]: 2.99 ± 0.29 h
- total protein half-life in vivo [9]: 4.91 ± 0.27 h

Substance: MIRSMTAYARREIKGEWGSATWEMRSVNQRYLETYFRLPEQFRSLEPVVRERIRSRLTRGKVECTLRYEPDVSAQGELILNEKLAKQLVTAANWVKMQSDEGEINPVDILRWPGVMAAQEQDLDAIAAEILAALDGTLDDFIVARETEGQALKALIEQRLEGVTAEVVKVRSHMPEILQWQRERLVAKLEDAQVQLENNRLEQELVLLAQRIDVAEELDRLEAHVKETYNILKKKEAVGRRLDFMMQEFNRESNTLASKSINAEVTNSAIELKVLIEQMREQIQNIE
- total protein half-life in vivo [3]: 4.67 ± 0.13 h
- total protein half-life in vivo [4]: 4.26 ± 0.17 h
- total protein half-life in vivo [10]: 4.15 ± 0.007 h
- total protein half-life in vivo [11]: 4.46 ± 0.36 h
- total protein half-life in vivo [5]: 4.24 ± 0.048 h
- total protein half-life in vivo [6]: 3.203 ± 0.032 h
- total protein half-life in vivo [1]: 5.69 ± 0.37 h
- total protein half-life in vivo [2]: 9.42 ± 0.49 h
- total protein half-life in vivo [7]: 4.21 ± 0.05 h
- total protein half-life in vivo [8]: 6.64 ± 0.2 h
- total protein half-life in vivo [12]: 5.83 ± 0.37 h
- total protein half-life in vivo [9]: 12.9 ± 1.8 h

Substance: MKKQRNLRSMAAQAVEQVVEQGQSLSNILPPLQQKVSDKDKALLQELCFGVLRTLSQLDWLINKLMARPMTGKQRTVHYLIMVGLYQLLYTRIPPHAALAETVEGAIAIKRPQLKGLINGVLRQFQRQQEELLAEFNASDARYLHPSWLLKRLQKAYPEQWQSIVEANNQRPPMWLRINRTHHSRDSWLALLDEAGMKGFPHADYPDAVRLETPAPVHALPGFEDGWVTVQDASAQGCMTWLAPQNGEHILDLCAAPGGKTTHILEVAPEAQVVAVDIDEQRLSRVYDNLKRLGMKATVKQGDGRYPSQWCGEQQFDRILLDAPCSATGVIRRHPDIKWLRRDRDIPELAQLQSEILDAIWPHLKTGGTLVYATCSVLPEENSLQIKAFLQRTADAELCETGTPEQPGKQNLPGAEEGDGFFYAKLIKK
- total protein half-life in vivo [3]: 5.88 ± 1 h
- total protein half-life in vivo [4]: 5.642 ± 0.039 h
- total protein half-life in vivo [10]: 5.05 ± 1.1 h
- total protein half-life in vivo [11]: 5.17 ± 0.74 h
- total protein half-life in vivo [5]: 4.92 ± 0.25 h
- total protein half-life in vivo [6]: 2.88 ± 0.45 h
- total protein half-life in vivo [1]: 6.66 ± 1.9 h
- total protein half-life in vivo [2]: 12.4 ± 0.73 h
- total protein half-life in vivo [7]: 6.14 ± 0.58 h
- total protein half-life in vivo [8]: 10.9 ± 0.76 h
- total protein half-life in vivo [12]: 6.96 ± 0.51 h
- total protein half-life in vivo [9]: 12.7 ± 0.89 h
